Source: patent publication US20170015742A1 (published 2017)

Assays:
[1] = biological target: recombinant human PDGF-BB (human, UniProt P01127 82-190); test: cell-based or functional assay
[2] = biological target: recombinant human VEGF165 (human, UniProt P15692 207-395); test: cell-based or functional assay
recombinant human VEGF165, sequence (P15692 other isoform, or with tags, fused parts or gaps limits assumed): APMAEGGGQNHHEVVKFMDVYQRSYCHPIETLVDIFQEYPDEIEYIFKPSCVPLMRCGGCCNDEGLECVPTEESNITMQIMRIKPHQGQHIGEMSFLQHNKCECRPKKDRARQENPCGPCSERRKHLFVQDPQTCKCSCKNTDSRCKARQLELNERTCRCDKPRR

recombinant human PDGF-BB, sequence (P01127 82-190 limits assumed): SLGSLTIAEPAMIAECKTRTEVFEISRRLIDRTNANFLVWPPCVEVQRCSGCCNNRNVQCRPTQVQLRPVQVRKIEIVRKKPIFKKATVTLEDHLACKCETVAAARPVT

B1: CL-34565_GS_CL-33675 (PR-1613183) (bispecific antibody, human IgG1, kappa, L234A L235A)
heavy: EVQLVQSGSELKKPGASVKVSCKASGYTFTDYGMYWVRQAPGQGLEWMGWIDTETGDPTYADDFKGRFVFSLDTSVSTAYLQISSLKAEDTAVYYCARTNYYYRNYMFYFDYWGQGTMVTVSSGGGGSGGGGSEVTLRESGPALVKPTQTLTLTCTFSGFSLSTYGMGVGWIRQPPGKALEWLANIWWDDDKYYNPSLKNRLTISKDTSKNQVVLTMTNMDPVDTATYYCARIESSGPKYSFDYWGQGTMVTVSSASTKGPSVFPLAPSSKSTSGGTAALGCLVKDYFPEPVTVSWNSGALTSGVHTFPAVLQSSGLYSLSSVVTVPSSSLGTQTYICNVNHKPSNTKVDKKVEPKSCDKTHTCPPCPAPEAAGGPSVFLFPPKPKDTLMISRTPEVTCVVVDVSHEDPEVKFNWYVDGVEVHNAKTKPREEQYNSTYRVVSVLTVLHQDWLNGKEYKCKVSNKALPAPIEKTISKAKGQPREPQVYTLPPSREEMTKNQVSLTCLVKGFYPSDIAVEWESNGQPENNYKTTPPVLDSDGSFFLYSKLTVDKSRWQQGNVFSCSVMHEALHNAYTQKSLSLSPGK
light: EIVLTQSPATLSLSPGERATLFCRASQSVSNHMHWYQQKPGQAPRLLIYGASILESGVPARFSGSGSGTDFTLTISSLEPEDFAVYYCQQSWYDPITFGQGTKLEIKGGSGGGGSGGEIVLTQSPGTLSLSPGERATLSCRASSGSIWYSFVSWYQQKPGQAPRLLIYADDQRASGIPDRFSGSGSGTDFTLTISRLEPEDFAVYYCQSYGINIDVVFGGGTKVEIKRTVAAPSVFIFPPSDEQLKSGTASVVCLLNNFYPREAKVQWKVDNALQSGNSQESVTEQDSKDSTYSLSSTLTLSKADYEKHKVYACEVTHQGLSSPVTKSFNRGEC
- Potency IC50 (nM), NIH-3T3 hPDGF-BB (proliferation) [1]: 0.052 nM
- Potency IC50 (nM), HMVEC-d hVEGF165 (proliferation) [2]: 0.059 nM

B2: CL-34565_GS_9E8.4 (PR-1613184) (bispecific antibody, human IgG1, kappa, L234A L235A)
heavy: EVQLVQSGSELKKPGASVKVSCKASGYTFTDYGMYWVRQAPGQGLEWMGWIDTETGDPTYADDFKGRFVFSLDTSVSTAYLQISSLKAEDTAVYYCARTNYYYRNYMFYFDYWGQGTMVTVSSGGGGSGGGGSEVTLRESGPALVKPTQTLTLTCTFSGFSLSTYGMGVGWIRQPPGKALEWLANIWWDDDKYYNPSLKNRLTISKDTSKNQVVLTMTNMDPVDTATYYCARIESIGTTYSFDYWGQGTMVTVSSASTKGPSVFPLAPSSKSTSGGTAALGCLVKDYFPEPVTVSWNSGALTSGVHTFPAVLQSSGLYSLSSVVTVPSSSLGTQTYICNVNHKPSNTKVDKKVEPKSCDKTHTCPPCPAPEAAGGPSVFLFPPKPKDTLMISRTPEVTCVVVDVSHEDPEVKFNWYVDGVEVHNAKTKPREEQYNSTYRVVSVLTVLHQDWLNGKEYKCKVSNKALPAPIEKTISKAKGQPREPQVYTLPPSREEMTKNQVSLTCLVKGFYPSDIAVEWESNGQPENNYKTTPPVLDSDGSFFLYSKLTVDKSRWQQGNVFSCSVMHEALHNAYTQKSLSLSPGK
light: EIVLTQSPATLSLSPGERATLFCRASQSVSNHMHWYQQKPGQAPRLLIYGASILESGVPARFSGSGSGTDFTLTISSLEPEDFAVYYCQQSWYDPITFGQGTKLEIKGGSGGGGSGGEFVLTQSPGTLSLSPGERATLSCERSSGDIGDSYVSWYQQKPGQAPRLVIYADDQRPSGIPDRFSGSGSGTDFTLTISRLEPEDFAVYYCQSYDINIDIVFGGGTKVEIKRTVAAPSVFIFPPSDEQLKSGTASVVCLLNNFYPREAKVQWKVDNALQSGNSQESVTEQDSKDSTYSLSSTLTLSKADYEKHKVYACEVTHQGLSSPVTKSFNRGEC
- Potency IC50 (nM), NIH-3T3 hPDGF-BB (proliferation) [1]: 0.323 nM
- Potency IC50 (nM), HMVEC-d hVEGF165 (proliferation) [2]: 0.065 nM
